The results in this text go back to publication PMC9015148 (2022).

One assay addresses Surf_03 (UniProt P0AFA2). The experiment in a line: SPR. (In general: Surface plasmon resonance follows binding to a sensor surface in real time, without labels.)
A further assay addresses RSV_FixBB (UniProt P0AFA2). As to the kind of experiment: SPR.

B1: D25 Fab (Fab, V domains shown)
VH: QVQLVQSGAEVKKPGSSVMVSCQASGGPLRNYIINWLRQAPGQGPEWMGGIIPVLGTVHYAPKFQGRVTITADESTDTAYIHLISLRSEDTAMYYCATETALVVSTTYLPHYFDNWGQGTLVTVSS
VL: DIQMTQSPSSLSAAVGDRVTITCQASQDIVNYLNWYQQKPGKAPKLLIYVASNLETGVPSRFSGSGSGTDFSLTISSLQPEDVATYYCQQYDNLPLTFGGGTKVEIK
For orientation: Kd means the equilibrium constant for the complex coming apart. Higher therefore signals weaker binding. As to B1, the Kd in the assay with Surf_03 is 360 nM; in the assay with RSV_FixBB, 99 nM.
